Experimental data as given in patent US20090117108A1 (published 2009).

Legend:
[1] = biological target: T1, purified CEA (carcinoembryonic antigen) (UniProt P06731 35-685, limits assumed); assay: ELISA, CEA coated at 1 ug/ml, CEA-scTsAb diluted from 10 ug/ml, detected by anti-c-myc antibody
T1 construct: Bought antigen; also called purified CEA (Fitzerald, German); purified CEA(R&D)
T1 sequence (looked up): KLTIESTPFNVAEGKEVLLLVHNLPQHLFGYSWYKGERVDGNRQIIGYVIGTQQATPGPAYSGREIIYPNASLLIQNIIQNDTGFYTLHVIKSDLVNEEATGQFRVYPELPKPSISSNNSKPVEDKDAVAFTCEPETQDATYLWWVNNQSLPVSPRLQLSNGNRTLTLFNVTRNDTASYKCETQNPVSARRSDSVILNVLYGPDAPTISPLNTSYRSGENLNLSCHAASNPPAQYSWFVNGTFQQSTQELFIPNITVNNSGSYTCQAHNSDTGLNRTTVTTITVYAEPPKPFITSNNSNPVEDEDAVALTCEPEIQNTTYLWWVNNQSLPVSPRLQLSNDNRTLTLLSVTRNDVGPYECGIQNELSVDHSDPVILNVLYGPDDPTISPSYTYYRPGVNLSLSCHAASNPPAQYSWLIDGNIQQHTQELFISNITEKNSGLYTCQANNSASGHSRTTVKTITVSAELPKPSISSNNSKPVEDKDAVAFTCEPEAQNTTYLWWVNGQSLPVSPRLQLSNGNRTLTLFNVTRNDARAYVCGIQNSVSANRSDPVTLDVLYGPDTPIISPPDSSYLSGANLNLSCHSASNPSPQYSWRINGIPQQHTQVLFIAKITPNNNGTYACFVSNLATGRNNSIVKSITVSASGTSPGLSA

rhCD28-FC chimera (R&D) = biological target: T2, rhCD28-FC chimera (R&D) (human (printed as 'rh'), UniProt P10747 19-152); assay: ELISA, rhCD28-FC chimera coated at 1 ug/ml, CEA-scTsAb diluted from 10 ug/ml, detected by anti-c-myc antibody
T2 construct: Bought from R&D; Fc part of the bought chimera not given
T2 sequence (P10747 19-152, change not shown): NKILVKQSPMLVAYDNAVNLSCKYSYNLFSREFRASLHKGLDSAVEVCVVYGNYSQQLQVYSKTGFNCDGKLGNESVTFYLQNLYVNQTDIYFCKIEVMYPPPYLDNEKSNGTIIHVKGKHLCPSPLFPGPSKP

B1: recombinant anti-CEA/CD3/CD28 single-chain tri-specific antibody CEA-scTsAb (other)
chain: MGLEQVQLQQSGAELMKPGASVKISCKATGYTFSDYWIEWVKQRPGHGLEWIGEILPGSGRTDYNERFKGKATFTGDVSSNTAYMKLSSLTSEDSAVYYCATGTTPFGYWGQGTLVTVSATSTPSHNSHQVPSAGGPTANSGSRDIVLTQSPASLAVSLGQRATISCRASQSVSTSSYTYMHWYQQKPGQPPKLLIKYASNLESGVPARFSGSGSGTDFTLNIHPVEEEDTAYYYCQHSWEIPRTFGGGTKLEIKEFNSTYRVVSVLTVLHQDWLNGKEYKCKSTEVKLVESGPELVKPGASMKISCKASGYSFTGYTMNWVKQSHGKNLEWMGLINPYKGVSTYNQKFKDKATLTVDKSSSTAYMELLSLTSEDSAVYYCARSGYYGDSDWYFDVWGAGTSVTVSSTSGGGGSGGGGSGGGGSSRDIQMTQTTSSLSASLGDRVTISCRASQDIRNYLNWYQQKPDGTVKLLIYYTSRLHSGVPSKFSGSGSGTDYSLTISNLEQEDIATYFCQQGNTLPWTFAGGTKLELKRAVDFQNALLVRYTKKVPQVSTPTPVEVSHMQVQLQESGPGLVKPSQTLSLTCTVSGFSLSDYGVHWVRQPPGKGLECLGVIWGGGTNYNSALMSRRVTSSDDTSKNQFSLKLSSVDTAVYYCARSYYYSMDYWGQGTLVTVSSGTEQKLISEEDLNGAAHHHHHHEQ
notes: Single linear tri-specific antibody expressed solubly in the E. coli cytoplasm and purified by DEAE flow-through to about 70-75% purity; also called anti-CEA/CD3/CD28 scTsAb
binding result [1]: binds | binding result (rhCD28-FC chimera (R&D)): binds
